This note sets out measurements from patent publication US20260092097A1.

Test [1] has as its target OVA peptide on H-2Kb (mouse). In words: value cited from Alam et al. for the monovalent OT1 TCRα/β heterodimer on immobilised OVA peptide/H-2Kb; not measured in this filing; soluble, other.
Test [2] addresses OVA peptide on H-2Kb (mouse). Put plainly: SPR, BIAcore 2000; biotinylated peptide/H2-Kb/birA on a streptavidin chip; apparent affinity of the bivalent dimer; single-chain; fusion: hIL-15 with hIL-15RαSu/birA (OT1scTCR dimer). (In SPR one partner is held on a chip, and binding of the other changes the refractive index at the surface.)
Test [3] deals with OVA peptide on H-2Kb (mouse). Put plainly: SPR; the murine single-chain CD8α/β domain of the complex binds the same peptide-MHC, so the value is not that of the TCR alone; single-chain; fusion: hIL-15, in complex with scCD8/hIL-15RαSu/birA (OT1scTCR/scCD8 heterodimer).
The target of test [4] is OVA (aa257-264) peptide/H-2Kb complex (mouse) (UniProt P01901). Put plainly: SPR (BIAcore 2000), biotinylated pMHCI on streptavidin chip.
Test [5] has as its target IL-15 receptor (IL-15RβγC) on 32Dβ cells (human; mouse) (UniProt P14784). In words: cell-based or functional assay.
In test [6] the target is anti-human IL-15 antibody. In words: ELISA, anti-human IL-15 antibody as capture and as detection. On the technique in general: In an ELISA, binding on a coated surface is turned into a signal by an enzyme label.
The target in test [7] is anti-human IL-15 antibody. Put plainly: ELISA, anti-human IL-15 antibody as capture and as detection; reference of the table.

OVA (aa257-264) peptide/H-2Kb complex (mouse), sequence (P01901 22-305, one chain of several): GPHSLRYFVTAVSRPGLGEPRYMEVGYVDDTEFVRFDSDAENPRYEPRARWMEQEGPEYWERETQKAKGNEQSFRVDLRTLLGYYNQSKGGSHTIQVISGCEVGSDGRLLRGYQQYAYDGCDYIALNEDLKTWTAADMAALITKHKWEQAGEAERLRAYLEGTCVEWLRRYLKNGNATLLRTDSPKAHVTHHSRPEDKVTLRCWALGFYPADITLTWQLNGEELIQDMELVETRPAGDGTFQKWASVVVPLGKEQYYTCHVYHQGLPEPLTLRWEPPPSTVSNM
IL-15 receptor (IL-15RβγC) on 32Dβ cells (human; mouse), sequence (P14784 27-551, chain 1 of 2): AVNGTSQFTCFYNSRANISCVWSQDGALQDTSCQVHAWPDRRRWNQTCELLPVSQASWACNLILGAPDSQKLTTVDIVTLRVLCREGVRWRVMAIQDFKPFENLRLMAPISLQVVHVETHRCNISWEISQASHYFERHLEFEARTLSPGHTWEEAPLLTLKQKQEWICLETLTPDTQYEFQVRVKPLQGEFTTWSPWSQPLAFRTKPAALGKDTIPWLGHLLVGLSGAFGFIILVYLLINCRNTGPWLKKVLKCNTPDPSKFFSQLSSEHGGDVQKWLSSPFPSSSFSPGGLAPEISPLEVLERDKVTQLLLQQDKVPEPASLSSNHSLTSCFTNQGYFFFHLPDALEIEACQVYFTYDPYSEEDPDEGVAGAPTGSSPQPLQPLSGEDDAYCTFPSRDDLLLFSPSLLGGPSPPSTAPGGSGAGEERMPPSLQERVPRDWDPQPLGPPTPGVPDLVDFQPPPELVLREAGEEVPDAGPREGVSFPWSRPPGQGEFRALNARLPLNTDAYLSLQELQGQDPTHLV
IL-15 receptor (IL-15RβγC) on 32Dβ cells (human; mouse), sequence (P34902 23-369, chain 2 of 2, further chain): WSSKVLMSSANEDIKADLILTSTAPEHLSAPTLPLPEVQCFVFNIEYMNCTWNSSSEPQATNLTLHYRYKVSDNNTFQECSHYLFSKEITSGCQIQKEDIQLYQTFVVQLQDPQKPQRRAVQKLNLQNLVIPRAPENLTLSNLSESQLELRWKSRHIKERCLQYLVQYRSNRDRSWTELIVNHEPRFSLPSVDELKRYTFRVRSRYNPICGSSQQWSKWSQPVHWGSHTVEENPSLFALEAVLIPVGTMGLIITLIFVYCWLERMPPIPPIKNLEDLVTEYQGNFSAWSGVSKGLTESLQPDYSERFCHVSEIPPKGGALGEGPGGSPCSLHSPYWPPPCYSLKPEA

For the substance OT1scTCR, the Kd in test [1] was found to be 6000 nM; in test [2] it was 30000 nM; in test [3], 2600 nM.

In the case of “OT1scTCR/scCD8 heterodimer: OT1scTCR/hIL-15:scCD8/hIL-15RαSu/birA complex (from UniProt P40933 49-162; P01731 28-196; P10300 22-175; Q13261 31-95)”, the 50% effective concentration (EC50 (read off the curve)) in the test with anti-murine CD8α mAb turned out to be 0.5 nM. The same substance showed a Kd in test [4] of 2600 nM.

Take “c264scTCR dimer: c264scTCR/hIL-15:c264scTCR/hIL-15RαSu/birA complex (from UniProt P40933 49-162; Q13261 31-95)”: the 32Dβ cell proliferation, half-maximal stimulation (EC50) in test [5] is 0.3 nM.

Take “OT1scTCR dimer: OT1scTCR/hIL-15:OT1scTCR/hIL-15RαSu/birA complex (from UniProt P40933 49-162; Q13261 31-95)”: in test [4], the Kd was 30000 nM.

Take c264scTCR/huIL15N72D fusion protein: in test [6], the concentration giving a half-maximal response (EC50 (read off the curve)) amounted to 0.2 nM. The substance also returned a Relative activity (%) in test [7] of 100%.

Turning to “c264scTCR/hIL-15 fusion protein (from UniProt P40933 49-162)”, the 32Dβ cell proliferation, half-maximal stimulation (EC50) in test [5] worked out at 0.3 nM.

As usually defined, the EC50 (read off the curve) is the concentration needed to bring the measured effect to its halfway point. Lower therefore signals a more potent agent.
